Measurements taken from PMC10786891, “Massively parallel profiling of RNA-targeting CRISPR-Cas13d”.

T1: EsCas13d, nuclease-dead (Eubacterium siraeum, UniProt B0MS50, R295A;H300A;R849A;H854A)
T1 sequence: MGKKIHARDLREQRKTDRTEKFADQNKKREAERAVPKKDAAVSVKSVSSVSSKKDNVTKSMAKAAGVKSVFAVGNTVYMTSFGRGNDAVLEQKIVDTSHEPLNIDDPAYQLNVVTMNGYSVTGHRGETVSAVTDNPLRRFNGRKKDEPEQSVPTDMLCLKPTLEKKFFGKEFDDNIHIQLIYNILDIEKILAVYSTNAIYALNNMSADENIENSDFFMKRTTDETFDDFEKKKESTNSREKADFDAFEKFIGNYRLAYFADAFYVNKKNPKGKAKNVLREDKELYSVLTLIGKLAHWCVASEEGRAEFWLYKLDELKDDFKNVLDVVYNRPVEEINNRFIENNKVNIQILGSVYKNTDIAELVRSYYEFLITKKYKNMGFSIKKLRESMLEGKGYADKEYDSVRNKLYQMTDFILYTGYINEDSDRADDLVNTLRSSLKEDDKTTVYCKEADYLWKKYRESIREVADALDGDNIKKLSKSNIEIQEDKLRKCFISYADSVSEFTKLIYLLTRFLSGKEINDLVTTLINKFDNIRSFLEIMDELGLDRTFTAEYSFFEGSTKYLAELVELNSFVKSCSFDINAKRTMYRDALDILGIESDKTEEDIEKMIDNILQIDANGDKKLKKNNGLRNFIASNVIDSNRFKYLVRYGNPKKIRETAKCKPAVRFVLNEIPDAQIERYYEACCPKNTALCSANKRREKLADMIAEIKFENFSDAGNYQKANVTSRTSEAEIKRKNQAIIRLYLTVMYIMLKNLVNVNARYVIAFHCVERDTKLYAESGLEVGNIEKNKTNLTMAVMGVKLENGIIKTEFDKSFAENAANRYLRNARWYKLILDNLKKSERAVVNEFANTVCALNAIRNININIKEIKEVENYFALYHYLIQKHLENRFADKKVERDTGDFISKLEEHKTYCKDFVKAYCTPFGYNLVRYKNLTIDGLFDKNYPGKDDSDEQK


The binders below were run against T1, EsCas13d, nuclease-dead (assay: crRNA (strand 1, pre-loaded); Mg2+; 40 mM Tris-HCl pH 7.5, 150 mM NaCl, 6 mM MgCl2, 1 mM DTT, 0.1% Tween-20, 0.2 mg/ml BSA; 25 C; 10 min per concentration, then washed). Conditions: tags: His6-TwinStrep-SUMO cleaved; N-terminal SNAP kept (SNAP-Surface 488); label: 3' end held by stalled T7 RNA polymerase.

Row | Binder | Kd
1 | target 1 MT 5'PFS AGG 3'PFS ACG (mixed) RNA 1: CACCCGUGCAAAAAUGCAGGGGUCUAAAACUGAGCGGAUAACCUCUCUAUGG RNA 2: GGGAAUGGAUCCACAUCUACGAAUUCAGGCCAUAGAGAGGUUAUCCGCUCAACGAGAUCGGAAGAGCACACGU | 41 ± 10 nM
2 | target 1 MT 5'PFS ACA 3'PFS AUG (mixed) RNA 1: CACCCGUGCAAAAAUGCAGGGGUCUAAAACUGAGCGGAUAACCUCUCUAUGG RNA 2: GGGAAUGGAUCCACAUCUACGAAUUCACACCAUAGAGAGGUUAUCCGCUCAAUGAGAUCGGAAGAGCACACGU | 39.5 ± 14.5 nM
3 | target 1 MT 5'PFS AAG 3'PFS AAG (mixed) RNA 1: CACCCGUGCAAAAAUGCAGGGGUCUAAAACUGAGCGGAUAACCUCUCUAUGG RNA 2: GGGAAUGGAUCCACAUCUACGAAUUCAAGCCAUAGAGAGGUUAUCCGCUCAAAGAGAUCGGAAGAGCACACGU | 20.5 ± 4.5 nM
4 | target 1 MT 5'PFS GCA 3'PFS UCU (mixed) RNA 1: CACCCGUGCAAAAAUGCAGGGGUCUAAAACUGAGCGGAUAACCUCUCUAUGG RNA 2: GGGAAUGGAUCCACAUCUACGAAUUCGCACCAUAGAGAGGUUAUCCGCUCAUCUAGAUCGGAAGAGCACACGU | 10.6 ± 2.55 nM
5 | target 1 MT 5'PFS ACA 3'PFS AUA (mixed) RNA 1: CACCCGUGCAAAAAUGCAGGGGUCUAAAACUGAGCGGAUAACCUCUCUAUGG RNA 2: GGGAAUGGAUCCACAUCUACGAAUUCACACCAUAGAGAGGUUAUCCGCUCAAUAAGAUCGGAAGAGCACACGU | 12.2 ± 3.9 nM
6 | target 1 MT 5'PFS GCA 3'PFS UCA (mixed) RNA 1: CACCCGUGCAAAAAUGCAGGGGUCUAAAACUGAGCGGAUAACCUCUCUAUGG RNA 2: GGGAAUGGAUCCACAUCUACGAAUUCGCACCAUAGAGAGGUUAUCCGCUCAUCAAGAUCGGAAGAGCACACGU | 11.8 ± 2.9 nM
7 | target 1 insG 3' of 18,insG 3' of 10 (mixed) RNA 1: CACCCGUGCAAAAAUGCAGGGGUCUAAAACUGAGCGGAUAACCUCUCUAUGG RNA 2: GGGAAUGGAUCCACAUCUACGAAUUCGUACCAUAGGAGAGGUUGAUCCGCUCACCGAGAUCGGAAGAGCACACGU | 61 ± 15 nM
8 | target 1 MT 5'PFS AGG 3'PFS ACC (mixed) RNA 1: CACCCGUGCAAAAAUGCAGGGGUCUAAAACUGAGCGGAUAACCUCUCUAUGG RNA 2: GGGAAUGGAUCCACAUCUACGAAUUCAGGCCAUAGAGAGGUUAUCCGCUCAACCAGAUCGGAAGAGCACACGU | 46.5 ± 22 nM
9 | target 1 MT 5'PFS CCU 3'PFS AGA (mixed) RNA 1: CACCCGUGCAAAAAUGCAGGGGUCUAAAACUGAGCGGAUAACCUCUCUAUGG RNA 2: GGGAAUGGAUCCACAUCUACGAAUUCCCUCCAUAGAGAGGUUAUCCGCUCAAGAAGAUCGGAAGAGCACACGU | 31.5 ± 14.5 nM
10 | target 1 MT 5'PFS AAA 3'PFS ACG (mixed) RNA 1: CACCCGUGCAAAAAUGCAGGGGUCUAAAACUGAGCGGAUAACCUCUCUAUGG RNA 2: GGGAAUGGAUCCACAUCUACGAAUUCAAACCAUAGAGAGGUUAUCCGCUCAACGAGAUCGGAAGAGCACACGU | 18.6 ± 4.45 nM
11 | target 1 MT 5'PFS UUA 3'PFS AUA (mixed) RNA 1: CACCCGUGCAAAAAUGCAGGGGUCUAAAACUGAGCGGAUAACCUCUCUAUGG RNA 2: GGGAAUGGAUCCACAUCUACGAAUUCUUACCAUAGAGAGGUUAUCCGCUCAAUAAGAUCGGAAGAGCACACGU | 77 ± 25 nM
12 | target 1 MT 5'PFS UCA 3'PFS CCG (mixed) RNA 1: CACCCGUGCAAAAAUGCAGGGGUCUAAAACUGAGCGGAUAACCUCUCUAUGG RNA 2: GGGAAUGGAUCCACAUCUACGAAUUCUCACCAUAGAGAGGUUAUCCGCUCACCGAGAUCGGAAGAGCACACGU | ~25 nM
13 | target 1 MT 5'PFS UCA 3'PFS CCC (mixed) RNA 1: CACCCGUGCAAAAAUGCAGGGGUCUAAAACUGAGCGGAUAACCUCUCUAUGG RNA 2: GGGAAUGGAUCCACAUCUACGAAUUCUCACCAUAGAGAGGUUAUCCGCUCACCCAGAUCGGAAGAGCACACGU | ~69 nM
14 | target 1 MT 5'PFS ACA 3'PFS AUC (mixed) RNA 1: CACCCGUGCAAAAAUGCAGGGGUCUAAAACUGAGCGGAUAACCUCUCUAUGG RNA 2: GGGAAUGGAUCCACAUCUACGAAUUCACACCAUAGAGAGGUUAUCCGCUCAAUCAGAUCGGAAGAGCACACGU | 56 ± 25.5 nM
15 | target 1 MT 5'PFS CAA 3'PFS CUC (mixed) RNA 1: CACCCGUGCAAAAAUGCAGGGGUCUAAAACUGAGCGGAUAACCUCUCUAUGG RNA 2: GGGAAUGGAUCCACAUCUACGAAUUCCAACCAUAGAGAGGUUAUCCGCUCACUCAGAUCGGAAGAGCACACGU | ~25 nM
16 | target 1 MT 5'PFS UUA 3'PFS AUG (mixed) RNA 1: CACCCGUGCAAAAAUGCAGGGGUCUAAAACUGAGCGGAUAACCUCUCUAUGG RNA 2: GGGAAUGGAUCCACAUCUACGAAUUCUUACCAUAGAGAGGUUAUCCGCUCAAUGAGAUCGGAAGAGCACACGU | 64.5 ± 23 nM
17 | target 1 MT 5'PFS UUA 3'PFS CGC (mixed) RNA 1: CACCCGUGCAAAAAUGCAGGGGUCUAAAACUGAGCGGAUAACCUCUCUAUGG RNA 2: GGGAAUGGAUCCACAUCUACGAAUUCUUACCAUAGAGAGGUUAUCCGCUCACGCAGAUCGGAAGAGCACACGU | 18 ± 7 nM
18 | target 1 MT 5'PFS AAA 3'PFS ACA (mixed) RNA 1: CACCCGUGCAAAAAUGCAGGGGUCUAAAACUGAGCGGAUAACCUCUCUAUGG RNA 2: GGGAAUGGAUCCACAUCUACGAAUUCAAACCAUAGAGAGGUUAUCCGCUCAACAAGAUCGGAAGAGCACACGU | 29.5 ± 14 nM
19 | target 1 MT 5'PFS AAA 3'PFS ACC (mixed) RNA 1: CACCCGUGCAAAAAUGCAGGGGUCUAAAACUGAGCGGAUAACCUCUCUAUGG RNA 2: GGGAAUGGAUCCACAUCUACGAAUUCAAACCAUAGAGAGGUUAUCCGCUCAACCAGAUCGGAAGAGCACACGU | 42 ± 13.5 nM
20 | target 1 MT 5'PFS UUA 3'PFS AUC (mixed) RNA 1: CACCCGUGCAAAAAUGCAGGGGUCUAAAACUGAGCGGAUAACCUCUCUAUGG RNA 2: GGGAAUGGAUCCACAUCUACGAAUUCUUACCAUAGAGAGGUUAUCCGCUCAAUCAGAUCGGAAGAGCACACGU | 20.5 ± 5 nM
21 | target 1 MT 5'PFS AGG 3'PFS ACU (mixed) RNA 1: CACCCGUGCAAAAAUGCAGGGGUCUAAAACUGAGCGGAUAACCUCUCUAUGG RNA 2: GGGAAUGGAUCCACAUCUACGAAUUCAGGCCAUAGAGAGGUUAUCCGCUCAACUAGAUCGGAAGAGCACACGU | 42 ± 12 nM
22 | target 1 MT 5'PFS AAA 3'PFS ACU (mixed) RNA 1: CACCCGUGCAAAAAUGCAGGGGUCUAAAACUGAGCGGAUAACCUCUCUAUGG RNA 2: GGGAAUGGAUCCACAUCUACGAAUUCAAACCAUAGAGAGGUUAUCCGCUCAACUAGAUCGGAAGAGCACACGU | 12.1 ± 2.6 nM
23 | target 1 MT 5'PFS CAA 3'PFS CUG (mixed) RNA 1: CACCCGUGCAAAAAUGCAGGGGUCUAAAACUGAGCGGAUAACCUCUCUAUGG RNA 2: GGGAAUGGAUCCACAUCUACGAAUUCCAACCAUAGAGAGGUUAUCCGCUCACUGAGAUCGGAAGAGCACACGU | 14.5 ± 5 nM
24 | target 1 MT 5'PFS CCU 3'PFS CGC (mixed) RNA 1: CACCCGUGCAAAAAUGCAGGGGUCUAAAACUGAGCGGAUAACCUCUCUAUGG RNA 2: GGGAAUGGAUCCACAUCUACGAAUUCCCUCCAUAGAGAGGUUAUCCGCUCACGCAGAUCGGAAGAGCACACGU | ~15.5 nM
25 | target 1 MT 5'PFS GCA 3'PFS UCG (mixed) RNA 1: CACCCGUGCAAAAAUGCAGGGGUCUAAAACUGAGCGGAUAACCUCUCUAUGG RNA 2: GGGAAUGGAUCCACAUCUACGAAUUCGCACCAUAGAGAGGUUAUCCGCUCAUCGAGAUCGGAAGAGCACACGU | 13.7 ± 2.4 nM
26 | target 1 MT 5'PFS UUA 3'PFS AUU (mixed) RNA 1: CACCCGUGCAAAAAUGCAGGGGUCUAAAACUGAGCGGAUAACCUCUCUAUGG RNA 2: GGGAAUGGAUCCACAUCUACGAAUUCUUACCAUAGAGAGGUUAUCCGCUCAAUUAGAUCGGAAGAGCACACGU | 13.2 ± 2.1 nM
27 | target 1 insA 3' of 10,insG 3' of 3 (mixed) RNA 1: CACCCGUGCAAAAAUGCAGGGGUCUAAAACUGAGCGGAUAACCUCUCUAUGG RNA 2: GGGAAUGGAUCCACAUCUACGAAUUCGUACCAUAGAGAGGUUAAUCCGCUGCACCGAGAUCGGAAGAGCACACGU | 7.18 ± 0.25 nM
28 | target 1 MT 5'PFS CCG 3'PFS CAC (mixed) RNA 1: CACCCGUGCAAAAAUGCAGGGGUCUAAAACUGAGCGGAUAACCUCUCUAUGG RNA 2: GGGAAUGGAUCCACAUCUACGAAUUCCCGCCAUAGAGAGGUUAUCCGCUCACACAGAUCGGAAGAGCACACGU | 6.45 ± 2.75 nM
